The assay concerns the target T1, polypeptide translated from the polynucleotide of SEQ ID NO: 62 (human, UniProt Q05513 356-592).
T1 construct: retested as a pGBKT7 fusion in yeast AH109
T1 sequence: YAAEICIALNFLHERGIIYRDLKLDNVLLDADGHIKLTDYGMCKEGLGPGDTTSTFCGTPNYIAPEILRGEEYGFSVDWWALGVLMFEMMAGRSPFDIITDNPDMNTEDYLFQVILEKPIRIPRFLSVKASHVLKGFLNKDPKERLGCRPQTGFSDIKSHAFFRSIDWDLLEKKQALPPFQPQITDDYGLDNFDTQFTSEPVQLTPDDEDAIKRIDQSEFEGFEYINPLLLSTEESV
As to the kind of experiment: yeast two-hybrid screen, LexA system, histidine and LacZ reporters, human kidney library. An excerpt: Then, the Human kidney […] LexA library (manufactured by Clontech Co., Ltd.) was introduced to the above-described strain and 10⁶ colonies were screened. At the first screening, a histidine-deficient medium was used and about 200 colonies were selected based on the expression of a histidine gene, which was a reporter of the interaction. At the second screening, 31 colonies were obtained based on the expression of LacZ, which was another reporter of the interaction. Finally, 31 clones each of which had been confirmed to surely have two kinds of reporter activities were selected. The above procedures were carried out on the basis of protocols of the yeast two-hybrid method from Invitrogen Co., Ltd. and Clontech Co., Ltd.
The library vectors were recovered from the yeast colonies selected as described above, and the nucleotide sequences were analyzed using the DNA sequencer (the same as above). The nucleotide sequences are shown in SEQ ID NOS: 33 to 63 in the Sequence Listing.

Ends that are not written are not given here.

B1: cytoplasmic domain of RAGE (receptor for advanced glycation endproduct) (receptor, UniProt Q15109 364-404, looked up)
chain: QRRQRRGEERKAPENQEEEEERAELNQSEEPEAGESSTGGP
modifications: not fully specified
notes: domain: cytoplasmic domain; also called RAGECD; RAGECD fragments
Turning to B1, the binding result is given as “binds”.
